Test results from the DeepSol protein solubility set.

Experiment: soluble on expression in E. coli; label from the status in PepcDB or PDB records

Question: Which “soluble on expression in E. coli” value does the source give for “MYRLQIEKIRGFRDFYPEDMDVEKFIFKTAEEAAEAFGFRRIDFPSLEYLDLYRIKSGEELLQQTYSFVDKGGREVTLIPEATPSTVRMVTSRKDLQRPLRWYSFPKVWRYEEPQAGRYREHYQFNADIFGSDSPEADAEVIALASSILDRLGLQDIYEIRINSRKIMEEIIGGMTSSDPFSVFSIIDRYHKISREEFVDQLRSAGIGEDGVSMIADLCSGTRGIDEMARITGKSSEEIARMAAVEDLLASYGVKNVRYDFSIVRGLSYYTGIVFEAYDRSGQFRAILGGGRYDNLASLMSGESVPAVGFGMGDAVISLLLKRENVQIPREKKSVYICRVGKINSSIMNEYSRKLRERGMNVTVEIMERGLSAQLKYASAIGADFAVIFGERDLERGVVTIRNMYTGSQENVGLDSVVEHLISQATLEHHHHHH” here?
Answer: The value was “soluble”.

Question: For “MYSKILGTGSYLPSQVRTNADLEKMVETSDEWIVARTGIRERRIAADNETVADMAFFAAQNAINMAGIDKHDIDMIIVATTSASHTFPSAACQVQGKLGIKGCPAFDLAAACSGFMYALSIADQHVKSGMCKHVLVIGADALSKTCDPTDRSTIILFGDGAGAVVVGASNEPGILSTHIHADGEFGDLLSLEVPVRGGDSDKWLHMAGNEVFKVAVTQLSKLVVDTLKANNMHKSELDWLVPHQANYRIISATAKKLSMSLDQVVITLDRHGNTSAATVPTALDEAVRDGRIQRGQMLLLEAFGGGFTWGSALVKF”, which “soluble on expression in E. coli” value is on record?
Answer: The value was “not soluble”.

Question: Which “soluble on expression in E. coli” value does the source give for “MYSSNYIYQHDDLELHGFLAHEEGIKQSRPAVIVAHDWSGRGEFACLKAKQLAEMGYIGFALDMYGQGQIGSNNDEKMALMQPLYSDRSLLRGRLYAALEAIKSISVVDNNRIAIIGFCFGGLCALDLARSGADIRGAVSFHGLLNKPENLASGRIKAKILALHGYDDPMAKPEQVHAFCQEMTEANVDWQMHMYGQVKHAFTNPQAHDEHLGLIYDEVAARRSWQAMSQFLQEIFN” here?
Answer: Its value is “not soluble”.

Question: With “MYTDSNNRNFDEVNHQHQQEQDFNGQSKYDYPQFNRPMGLRWRDDQRMMEYFMSNGPVETVPVMPILTEHPPASPFGRGPSTERPTTSSRYEYSSPSLEDIDLIDVLWRSDIAGEKGTRQVAPADQYECDLQTLTEKSTVAPLTAEENARYEDLSKGFYNGFFESFNNNQYQQKHQQQQREQIKTPTLEHPTQKAELEDDLFDEDLAQLFEDVSREEGQLNQLFDNKQQHPVINNVSLSEGIVYNQANLTEMQEMRDSCNQVSISTIPTTSTAQPETLFNVTDSQTVEQWLPTEVVPNDVFPTSNYAYIGMQNDSLQAVVSNGQIDYDHSYQSTGQTPLSPLIIGSSGRQQQTQTSPGSVTVTATATQSLFDPYHSQRHSFSDCTTDSSSTCSRLSSESPRYTSESSTGTHESRFYGKLAPSSGSRYQRSSSPRSSQSSIKIARVVPLASGQRKRGRQSKDEQLASDNELPVSAFQISEMSLSELQQVLKNESLSEYQRQLIRKIRRRGKNKVAARTCRQRRTDRHDKMSHYI” as the sequence, how does the “soluble on expression in E. coli” value read?
Answer: The value was “not soluble”.

Question: With “MYTFKKGDADYQVMLNENFKEITDSFEDGLFVRKNSKILDLNDAILPGIYSIPATGVDNKPLPNSGSLFVCKDPGGVRQLFQTERTIFIRQLGGVPSSWTDWKKVAFEKEQPFEAWYSPGTNHAGFKNKARYNLGPEFSNIGQRLGLPMKSEPLEWNSGRWQAKVLRDCKLNISGTVKYHVGSSRGVLYAYTHIDKGLDEGVGDLGIGSAVGAVGGLDYKNVAAFDLNVTLKKGEYLAFRLELAADKQLDYTQLSSMHITELV” as the sequence, how does the “soluble on expression in E. coli” value read?
Answer: The value was “not soluble”.

Question: With “MYTKILGTGSYLPVQVRSNADLEKMVDTSDEWIVTRTGIRERRIAGLDETVATMGFQAAEKALEMAGIDKDDIGLIIVATTSSSHAFPSSACQVQRMLGIKDAASFDLAAACAGFTYALSVADQYVKSGAVKHAIVIGSDVLSRALDPEDRGTIILFGDGAGAVVLGASEQPGIMSTHLHADGRYGELLALPYPDRQQDQPAYVTMAGNEVFKVAVTELAHIVDETLQANNLDRTALDWLVPHQANLRIISATAKKLGMGMDKVVITLDRHGNTSAASVPSAFDEAVRDGRIQRGQLVLLEAFGGGFTWGSALVRF” as the sequence, how does the “soluble on expression in E. coli” value read?
Answer: The value was “not soluble”.

Question: Which “soluble on expression in E. coli” value does the source give for “MYTNRWEGLDEFVAVAECGQFTAAALRLGVSSSHVSRQIVRLEERLQTRLLYRSTRKVALTEAGQTFLHHCQRLQDGREEALRAVGDLASEPKGLLRMTCAVAYGERFITPLVTRFMELYPQLRVDIELSNDTLDLVHEGMDLAIRLGRLQDSRMVATRLAPRQMYLCASPSYLERYGRPHSLSELSRHNCLIGGSDTWQLQQNGREFSQRVQGNWRCNSGQAVLDAALQGVGLCQLPDYYVQKHLKEGALVSLLEAHQPPNTAVWALYPQQRHLSPKVRKLVDYLKEGLAMQDEYRQ” here?
Answer: Its value is “not soluble”.

Question: For “NAFVSIQTSTIPKTAFVARDFVPLQNRGNQWVAPVRASEDDPALAKSYLDFAIIEVPLFLHNQMDKQIYDHFMRPAINTYERLGNSVGIFAYQPMASFKRDSYFALGYPQVESNIAALNLNQTEVKPTRPEDVAQVTFKEPWSVDHHREIPTLTTNQLTTIKTKHFSGSKLSWPFDHTKSF”, which “soluble on expression in E. coli” value is on record?
Answer: The value was “not soluble”.

Question: With “NDSLVLFSTDLKLLWANRSAEHLYGDYVEQLVGQEFTSLKGARGIPSDAIAVRASLGSGEPCYERVSAADGRIWDMKYFPVRGED” as the sequence, how does the “soluble on expression in E. coli” value read?
Answer: Its value is “not soluble”.

Question: With “NFLDFEKPIVELETKIQALRDVSRHSTSASVDLDKELEQLEKKSLELKKKIFSDLGAWQVAQLARHPQRPYTLDYLKHIFTEFDELAGDRAYADDKAIVGGIARLEGRSVMVIGHQKGRETREKVKRNFGMPKPEGYRKALRLMEMAERFNM” as the sequence, how does the “soluble on expression in E. coli” value read?
Answer: Its value is “not soluble”.

Question: Which “soluble on expression in E. coli” value does the source give for “NIDEHSLFVNVGERTNVTGSKAFARLILNGGYAEGLVIARSQVENGAQIIDINMDEAMLDSQKAMVTFLNLLAAEPDISRLPIMLDSSKWSVIEAGLKCVQGKAVINSISLKEGEAEFLHHARLARRYGAAVIVMAFDETGQADTLQRKVEICTRCYHTLIEQADFPPEDIIFDPNIFAIATGIEEHSNYAVDFIEATHVIRQTLPYAKVSGGVSNVSFSFRGNEPIREAIHTAFLYHAVKAGMTMGIVNAGQLGVYSDIPPDLLEHVEDVLLNRRPDATERLVEFAEHFKGQKKEQIE” here?
Answer: Its value is “not soluble”.

Question: Which “soluble on expression in E. coli” value does the source give for “NKDWRINGYVNFSRNENKITELPANMVQENYSPKNGAYAARAEVGRPIGSFYGYRYKGVYQNTDATYARDAEGNVMNDAKGRPIVMKNLTATCQPGDAMYEDINHDGVINQYDIVYLGNANPTLTGGAGLTVKYKQFSINTFFHGRFGQSVVNTARMNNESMHGNANQSTAVLRRWKNEGDITDIPRALYGEGFNYLGSDRFVEDTSFLRLKQLTLNYAFPKSICNKLGITSLTCFVTGYNLFTWSSYTGQDPEVNLPSRPTDLATDGATTPVSRRYTFGFNLSF” here?
Answer: Its value is “not soluble”.

Question: Which “soluble on expression in E. coli” value does the source give for “NKSYRSTEQITNFAKALLPDGDQIQAFTRKGDLPKVMIRYGEDAALSSLRSEVEHQLKATNTVAVLTKDLAESKQVYQYLKRYTVTTLMADSDRTMPQGVIVMPIYLAKGLEFDAVVAYDVSATNYPDADSVGILYTIASRAMHHLTLLSIGDVSPLIAQLDPTLFTIEHQVRV” here?
Answer: Its value is “not soluble”.

Question: For “NNAKEALELCDKRDWDLAELSYRYELQFHTKEEICAYCLEIWEVMQEVYYNGTHPNEDYLPGKLHLKRRAKGLKERVAMTADPMGIIDFISLYAIAIAEENASGAKVVTAPTNGACAVIPAVMLYLKNHTIGFSDEKVIEFLLTAMLIGSFYKKNASISGAEAGCQAEIGSASSMAAAAMATVLGANAFKACNAAEMAMEHHLGLTCDPVAGLVQIPCIERNAFGAIKAISAARMAMTRKSTPMVSLDEVIETMYETGKDMNYKYKETSLGGLATN”, which “soluble on expression in E. coli” value is on record?
Answer: Its value is “not soluble”.

Question: With “NPQTSVSNTGKEADATKNQTSKADQVSAPYEGTGKTSKSLYGGQTELEKNIQTLQPSSIIGTDERTRISSTTSFPYRATVQLSIKYPNTSSTYGCTGFLVNPNTVVTAGHCVYSQDHGWASTITAAPGRNGSSYPYGTYSGTMFYSVKGWTESKDTNYDYGAIKLNGSPGNTVGWYGYRTTNSSSPVGLSSSVTGFPCDKTFGTMWSDTKPIRSAETYKLTYTTDTYGCQSGSPVYRNYSDTGQTAIAIHTNGGSSYNLGTRVTNDVFNNIQYWANQ” as the sequence, how does the “soluble on expression in E. coli” value read?
Answer: The value was “not soluble”.

Question: For “NPYDVVVIGGGPGGYVASIKAAQLGMKTACVEKRGALGGTCLNVGCIPSKALLHATHLYHDAHANFARYGLMGGEGVTMDSAKMQQQKERAVKGLTGGVEYLFKKNKVTYYKGEGSFETAHSIRVNGLDGKQEMLETKKTIIATGSEPTELPFLPFDEKVVLSSTGALALPRVPKTMVVIGGGVIGLELGSVWARLGAEVTVVEFAPRCAPTLDEDVTNALVGALAKNEKMKFMTSTKVVGGTNNGDSVSLEVEGKNGKRETVTCEALLVSVGRRPFTGGLGLDKINVAKNERGFVKIGDHFETSIPDVYAIGDVVDKGPMLAHKAEDEGVACAEILAGKPGHVNYGVIPAVIYTMPEVASVGKSEDELKKEGVAYKVGKFPFNANSRAKAVSTEDGFVKVLVDKATDRILGVHIVCTTAGELIGEACLAMEYGASSEDVGRTCHAHPTMSEALKEACMALFAKTINF”, which “soluble on expression in E. coli” value is on record?
Answer: Its value is “soluble”.

Question: Which “soluble on expression in E. coli” value does the source give for “NSKKETVTVGVLQFVSHPALDEIYKGVEEGLKENGYDKGKNLEIIFQNGQADQSKLAIMSQQLVQKKADVLIGIATPAAQALANTTQEIPIILGAITDPVSAGLVKDNQKPGGNITGVSDQSPLSAQMDLLKELIPAAKKIGILYASSEENSRYQVAEAQKAAEAKGLTVKTYAVPSSNEIAQTVQVMTKETDVIYIPTDNTIANAMQTVVGEANRTKTPIIPSVDTMVEQGGLATVGINQHALGVQAGKMAAEVLSGKSQPATTPIYTFNTGDTIINEKQAQKLGITIPAELAKKSKLIN” here?
Answer: The value was “not soluble”.

Question: Which “soluble on expression in E. coli” value does the source give for “NSRVSDLDLELLFQDRAARLGKSISRLIVVASLIDKPTNLGGLCRTCEVFGASVLVVGSLQCISDKQFQHLSVSAEQWLPLVEVKPPQLIDYLQQKKTEGYTIIGVEQTAKSLDLTQYCFPEKSLLLLGNEREGIPANLIQQLDVCVEIPQQGIIRSLNVHVSGALLIWEYTRQQLLSHGDTKP” here?
Answer: The value was “soluble”.

Question: With “NTDIRNIPVGVVDQSGSTAGRIITQSVKVTQVVDIKETYATAQEAEQAIQDGIVRAVLILPSDLTQRMMQGRELGQWIVDGSDTMISSAILSLQTMPLTDFDFEIRPAPSKTFEVALYYNPSRRSAVN” as the sequence, how does the “soluble on expression in E. coli” value read?
Answer: Its value is “not soluble”.

Question: With “NTGIVSSFFTYTGPAHGTQWDEIDIEFLGKDTTKVQFNYYTNGVGGHEKVISLGFDASKGFHTYAFDWQPGYIKWYVDGVLKHTATANIPSTPGKIMMNLWNGTGVDDWLGSYNGANPLYAEYDWVKYTSNQTGGSFFEPFNSYNSGTWEKADGYSNGGVFNCTWRANNVNFTNDGKLKLGLTSSAYNKFDCAEYRSTNIYGYGLYEVSMKPAK” as the sequence, how does the “soluble on expression in E. coli” value read?
Answer: The value was “soluble”.

Question: With “NTKGIDEIKNLETDFNGRIGVYALDTGSGKSFSYRANERFPLCSSFKGFLAAAVLKGSQDNRLNLNQIVNYNTRSLEFHSPITTKYKDNGMSLGDMAAAALQYSDNGATNIILERYIGGPEGMTKFMRSIGDEDFRLDRWELDLNTAIPGDERDTSTPAAVAKSLKTLALGNILSEHEKETYQTWLKGNTTGAARIRASVPSDWVVGDKTGSCGAYGTANDYAVVWPKNRAPLIISVYTTKNEKEAKHEDKVIAEASRIAIDNLK” as the sequence, how does the “soluble on expression in E. coli” value read?
Answer: The value was “soluble”.

Question: For “NVLPSELPAGVDWRSRGCVTPVKDQRDCGSCWAFSTTGALEGAHCAKTGKLVSLSEQELMDCSRAEGNQSCSGGEMNDAFQYVLDSGGICSEDAYPYLARDEECRAQSCEKVVKILGFKDVPRRSEAAMKAALAKSPVSIAIEADQMPFQFYHEGVFDASCGTDLDHGVLLVGYGTDKESKKDFWIMKNSWGTGWGRDGYMYMAMHKGEEGQCGLLLDASFPVM”, which “soluble on expression in E. coli” value is on record?
Answer: Its value is “soluble”.

Question: With “PAKLGYWKIRGLQQPVRLLLEYLGEKYEEQIYERDDGEKWFSKKFELGLDLPNLPYYIDDKCKLTQSLAILRYIADKHGMIGTTSEERARVSMIEGAAVDLRQGISRISYQPKFEQLKEGYLKDLPTTMKMWSDFLGKNPYLRGTSVSHVDFMVYEALDAIRYLEPHCLDHFPNLQQFMSRIEALPSIKAYMESNRFIKWPLNGWHAQFGGGDAPP” as the sequence, how does the “soluble on expression in E. coli” value read?
Answer: The value was “soluble”.
